Test results reported in the Human Domainome abundance scans (Beltran et al. 2025).
± gives the uncertainty stated by the source.

B1: Formin-binding protein 4, residues 200 to 261; numbered along this chain, Q8N3X1 (parent)
chain: SGWQYDTQCSLAGVGIEMGDWQEVWDENTGCYYYWNTQTNEVTWELPQYLATQVQGLQHYQP

Variants of: B1
Assay: abundance fitness (aPCA) (normalised: wild type 0, dead -1); higher = more abundant; growth selection in yeast, the domain comes from the species named
Conditions: Homo sapiens

Abundance fitness, by site and new letter:
N36: I -1.13 ± 0.31, W -0.814 ± 0.11, T -0.993 ± 0.14, C -0.236 ± 0.11, S -0.553 ± 0.084, E -0.287 ± 0.11, Q -0.121 ± 0.1, G -0.64 ± 0.098, P -0.897 ± 0.15, Y -0.961 ± 0.29, F -0.744 ± 0.16, L -0.861 ± 0.094, D -0.612 ± 0.17, V -1.02 ± 0.16, R -0.657 ± 0.081, M -0.603 ± 0.12, A -0.645 ± 0.12, K -0.663 ± 0.13
W35: E 0.328 ± 0.076, F 0.112 ± 0.2, T 0.172 ± 0.09, S 0.066 ± 0.075, Y -0.271 ± 0.36, K 0.355 ± 0.09, P -1.04 ± 0.19, H 0.166 ± 0.25, A 0.196 ± 0.054, V -0.104 ± 0.057, D -0.159 ± 0.19, R 0.184 ± 0.059, M -0.189 ± 0.085, L -0.112 ± 0.058, I 0.09 ± 0.22, G -0.297 ± 0.058
Y33: E -0.458 ± 0.1, W -0.52 ± 0.091, S -0.212 ± 0.075, F -0.281 ± 0.15, K 0.016 ± 0.08, R -0.201 ± 0.059, C -0.213 ± 0.13, M -0.316 ± 0.079, Q -0.389 ± 0.1, H -0.169 ± 0.17, I -0.566 ± 0.25, G -0.576 ± 0.063, P -0.676 ± 0.12, L -0.477 ± 0.073, T -0.335 ± 0.099, D -0.706 ± 0.15, V -0.447 ± 0.061, A -0.691 ± 0.09
T37: E -0.297 ± 0.11, S 0.019 ± 0.064, N -0.166 ± 0.1, K 0.09 ± 0.094, C 0.089 ± 0.11, V -0.058 ± 0.065, F -0.151 ± 0.082, R -0.111 ± 0.071, A 0.061 ± 0.067, D -0.171 ± 0.11, H -0.009 ± 0.12, G -0.135 ± 0.07, L -0.133 ± 0.062, I -0.022 ± 0.085, Y -0.243 ± 0.14, Q 0.01 ± 0.093
C31: P -0.742 ± 0.14, S 0.031 ± 0.059, L -0.183 ± 0.058, A 0.01 ± 0.063, E -0.422 ± 0.093, V -0.129 ± 0.059, W -0.662 ± 0.12, T -0.094 ± 0.071, Q -0.038 ± 0.1, M -0.127 ± 0.086, Y -0.063 ± 0.11, K 0.066 ± 0.088, H -0.017 ± 0.12, G -0.125 ± 0.057, I -0.326 ± 0.092, N 0.107 ± 0.12, F 0.083 ± 0.077, R 0.165 ± 0.056
Y32: K -1.02 ± 0.18, L -0.633 ± 0.071, E -0.673 ± 0.091, W -0.543 ± 0.11, H -0.16 ± 0.14, R -0.792 ± 0.1, C -0.478 ± 0.15, Q -0.818 ± 0.16, P -0.417 ± 0.11, I -0.3 ± 0.13, G -0.678 ± 0.081, S -0.567 ± 0.089, V -0.677 ± 0.077, F -0.009 ± 0.1, N -0.487 ± 0.16, M -0.511 ± 0.097, A -0.502 ± 0.079, T -0.773 ± 0.11
T29: S 0.123 ± 0.074, Y 0.019 ± 0.15, Q -0.125 ± 0.093, W -0.362 ± 0.075, R 0.117 ± 0.054
Y34: S -0.862 ± 0.11, T -0.847 ± 0.14, F -0.18 ± 0.11, E -0.791 ± 0.13, K -0.726 ± 0.17, D -1 ± 0.23, H -0.873 ± 0.34, M -0.962 ± 0.14, W -0.449 ± 0.082, V -0.669 ± 0.083, G -0.664 ± 0.084, L -0.796 ± 0.088, Q -0.946 ± 0.15, C -0.927 ± 0.22, A -0.866 ± 0.11, P -1.21 ± 0.22
Q38: N -0.266 ± 0.25, T 0.254 ± 0.082, Y 0.128 ± 0.26, I -0.086 ± 0.14, S -0.019 ± 0.069, E -0.081 ± 0.08, W -0.216 ± 0.088, K 0.138 ± 0.11, F -0.346 ± 0.17, H -0.022 ± 0.25, G -0.077 ± 0.064, R 0.042 ± 0.064, M -0.11 ± 0.092, V -0.126 ± 0.074, D 0.247 ± 0.16, P -0.541 ± 0.14, L -0.133 ± 0.063
T39: M -0.386 ± 0.1, I -0.354 ± 0.1, H -0.34 ± 0.16, K -0.123 ± 0.089, E -0.37 ± 0.13, C -0.307 ± 0.094, G -0.362 ± 0.097, D -0.151 ± 0.18, F -0.577 ± 0.13, L -0.461 ± 0.066, A -0.411 ± 0.098
G30: S 0.006 ± 0.088, V -0.191 ± 0.057, Y -0.473 ± 0.21, P -0.219 ± 0.13, K 0.129 ± 0.093, I 0.052 ± 0.16, H -0.718 ± 0.24, F -0.381 ± 0.12, R 0.078 ± 0.053, Q 0.049 ± 0.086, A -0.095 ± 0.063, L -0.4 ± 0.082, N -0.15 ± 0.16, W -0.23 ± 0.08
